In patent publication US7094597:

Target: purified HLA MHC Class II molecules (human)
Test: ELISA, biotinylated peptides on immobilized purified HLA class II molecules (FIG. 5)

With dnaJp1 peptide (…) the fold stronger binding than S1 and S6 peptides was greater than 100 fold.
